# ± gives the standard deviation of the averaged measurements.
# Columns and labels:
# Saccharomyces cerevisiae [1] = assay: protein stability index of tFT-peptide fusion (C-terminal peptide) (PSI (0-1 scale)); higher = more stable (slower turnover); details: genetic background: wild type; temperature: 30 C
# Saccharomyces cerevisiae [2] = assay: as above
# Experimental: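 MPS profiling in S. cerevisiae of the tFT-X12 degron library: putative degron peptides plus stable controls, 12 aa, fused to the C-terminus of a sfGFP-mCherry timer. Cells are FACS-sorted into 8 mCherry/sfGFP bins and deep-sequenced. PSI runs from 0 (unstable) to 1 (stable). Backgrounds are wild type, das1Δ and doa10Δ at 30 °C, and wild type, das1Δ, cdc34-1 and cdc53-1 at 37 °C; 2-3 technical replicates each.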
# [3] = genetic background: cdc34-1, temperature: 37 C
# [4] = genetic background: cdc53-1, temperature: 37 C
# [5] = genetic background: das1 deletion, temperature: 30 C
# [6] = genetic background: das1 deletion, temperature: 37 C
# [7] = genetic background: doa10 deletion, temperature: 30 C
# [8] = genetic background: wild type, temperature: 30 C
# [9] = genetic background: wild type, temperature: 37 C
# 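Note: PSI is a weighted mean of sequencing reads over stability bins, variants kept only with over 10 reads, mCherry proximal and sfGFP distal, peptide attached via GGGS linker.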
Sequence,protein stability index (Saccharomyces cerevisiae [1]),protein stability index (Saccharomyces cerevisiae [2]; [3]),protein stability index (Saccharomyces cerevisiae [2]; [4]),protein stability index (Saccharomyces cerevisiae [2]; [5]),protein stability index (Saccharomyces cerevisiae [2]; [6]),protein stability index (Saccharomyces cerevisiae [2]; [7]),protein stability index (Saccharomyces cerevisiae [2]; [8]),protein stability index (Saccharomyces cerevisiae [2]; [9])
LEYCLATYLSAC,0.378 ± 0.0073,0.3382 ± 0.00047,0.435 ± 0.013,0.25 ± 0.035,0.43854 ± 0.00041,0.211 ± 0.0025,0.248 ± 0.016,0.4386 ± 0.00068
VWYSCWSFLVLF,0.291 ± 0.024,0.444 ± 0.026,0.548 ± 0.011,0.416 ± 0.034,0.55122 ± 0.00022,0.2 ± 0.011,0.207 ± 0.024,0.362 ± 0.035
SWRRCLSSIPVA,0.425 ± 0.013,0.383 ± 0.0085,0.416 ± 0.012,0.319 ± 0.026,0.457 ± 0.0086,0.276 ± 0.0056,0.303 ± 0.035,0.438 ± 0.012
ILHRRCGLLLQI,0.343 ± 0.016,0.47 ± 0.04,0.506 ± 0.0066,0.447 ± 0.015,0.538 ± 0.017,0.273 ± 0.0094,0.278 ± 0.025,0.4161 ± 0.0032
FFICCPLLVVCS,0.109 ± 0.041,0.0277 ± 0.012,0.0453 ± 0.027,0.091 ± 0.022,0.0716 ± 0.018,0.064 ± 0.016,0.0665 ± 0.035,0.0677 ± 0.021
FCFCLVLRVFLG,0.253 ± 0.034,0.118 ± 0.0026,0.171 ± 0.011,0.154 ± 0.03,0.272 ± 0.0093,0.172 ± 0.011,0.162 ± 0.024,0.222 ± 0.014
HNLIRKHAKESS,0.394 ± 0.085,0.63 ± 0.083,0.702 ± 0.0032,0.641 ± 0.034,0.699 ± 0.015,0.171 ± 0.036,0.249 ± 0.016,0.459 ± 0.054
PRINTFVVVRVC,0.159 ± 0.042,0.102 ± 0.02,0.183 ± 0.015,0.216 ± 0.038,0.336 ± 0.013,0.0626 ± 0.015,0.0722 ± 0.018,0.0609 ± 0.0015
RPSHTSVYRLLH,0.2545 ± 0.0022,0.553 ± 0.061,0.677 ± 0.054,0.655 ± 0.045,0.706 ± 0.019,0.114 ± 0.019,0.148 ± 0.0086,0.337 ± 0.17
GVRAGVRRAGVG,0.402 ± 0.011,0.308 ± 0.019,0.418 ± 0.0075,0.399 ± 0.0055,0.414 ± 0.014,0.3927 ± 0.0033,0.382 ± 0.0068,0.402 ± 0.0045
CFGFMFLLLFDV,0.405 ± 0.02,0.3073 ± 0.0011,0.312 ± 0.0066,0.334 ± 0.024,0.448 ± 0.013,0.467 ± 0.011,0.317 ± 0.027,0.418 ± 0.0039
VLISLVLLFRCW,0.408 ± 0.041,0.23 ± 0.015,0.244 ± 0.038,0.262 ± 0.023,0.386 ± 0.016,0.307 ± 0.028,0.248 ± 0.03,0.332 ± 0.017
WFSVFTMSILSR,0.435 ± 0.0096,0.416 ± 0.026,0.479 ± 0.0075,0.338 ± 0.028,0.4963 ± 0.0024,0.334 ± 0.004,0.341 ± 0.018,0.474 ± 0.01
VFFLRVHFWSFF,0.2826 ± 0.0026,0.377 ± 0.01,0.487 ± 0.011,0.368 ± 0.029,0.53367 ± 0.00033,0.138 ± 0.015,0.168 ± 0.0092,0.246 ± 0.02
FCIIVFYIFVGI,0.382 ± 0.041,0.451 ± 0.061,0.506 ± 0.078,0.342 ± 0.027,0.48 ± 0.077,0.323 ± 0.024,0.333 ± 0.022,0.486 ± 0.042
FASALAPLSAVA,0.4002 ± 0.0029,0.48 ± 0.014,0.494 ± 0.022,0.366 ± 0.044,0.529 ± 0.001,0.307 ± 0.0091,0.358 ± 0.036,0.509 ± 0.0079
WAAVGIQLRLLF,0.3323 ± 0.00057,0.354 ± 0.011,0.34 ± 0.015,0.317 ± 0.034,0.47357 ± 9.6e-05,0.233 ± 0.026,0.199 ± 0.018,0.347 ± 0.022
PVPPRVNLLRVS,0.3959 ± 0.0035,0.619 ± 0.034,0.6641 ± 0.0053,0.542 ± 0.028,0.6735 ± 0.0053,0.215 ± 0.0024,0.263 ± 0.031,0.475 ± 0.011
YFWWLWMSFWVG,0.4702 ± 0.0044,0.4935 ± 0.0028,0.53 ± 0.011,0.43 ± 0.023,0.59 ± 0.066,0.419 ± 0.022,0.403 ± 0.015,0.539 ± 0.013
LVFFLFFFRCFS,0.449 ± 0.035,0.506 ± 0.059,0.514 ± 0.016,0.37 ± 0.049,0.534 ± 0.014,0.3734 ± 0.0018,0.36 ± 0.033,0.488 ± 0.0042
SWWGDVVWFVVC,0.282 ± 0.03,0.555 ± 0.059,0.649 ± 0.015,0.501 ± 0.015,0.7029 ± 0.0032,0.176 ± 0.018,0.199 ± 0.03,0.381 ± 0.0062

# — the supplement of paper PMC10724198
